The chains are these.
B1: TIMELESS-interacting protein (Homo sapiens), Q9BVW5 (parent)
chain: MLEPQENGVIDLPDYEHVEDETFPPFPPPASPERQDGEGTEPDEESGNGAPVRVPPKRTVKRNIPKLDAQRLISERGLPALRHVFDKAKFKGKGHEAEDLKMLIRHMEHWAHRLFPKLQFEDFIDRVEYLGSKKEVQTCLKRIRLDLPILHEDFVSNNDEVAENNEHDVTSTELDPFLTNLSESEMFASELSRSLTEEQQQRIERNKQLALERRQAKLLSNSQTLGNDMLMNTPRAHTVEEVNTDEDQKEESNGLNEDILDNPCNDAIANTLNEEETLLDQSFKNVQQQLDATSRNITEAR
B2: SWI/SNF-related matrix-associated actin-dependent regulator of chromatin subfamily A-like protein 1 (Homo sapiens), Q9NZC9 (parent)
chain: MSLPLTEEQRKKIEENRQKALARRAEKLLAEQHQRTSSGTSIAGNPFQAKQGPSQNFPRESCKPVSHGVIFKQQNLSSSSNADQRPHDSHSFQAKGIWKKPEEMPTACPGHSPRSQMALTGISPPLAQSPPEVPKQQLLSYELGQGHAQASPEIRFTPFANPTHKPLAKPKSSQETPAHSSGQPPRDAKLEAKTAKASPSGQNISYIHSSSESVTPRTEGRLQQKSGSSVQKGVNSQKGKCVRNGDRFQVLIGYNAELIAVFKTLPSKNYDPDTKTWNFSMNDYSALMKAAQSLPTVNLQPLEWAYGSSESPSTSSEGQAGLPSAPSLSFVKGRCMLISRAYFEADISYSQDLIALFKQMDSRRYDVKTRKWSFLLEEHSKLIAKVRCLPQVQLDPLPTTLTLAFASQLKKTSLSLTPDVPEADLSEVDPKLVSNLMPFQRAGVNFAIAKGGRLLLADDMGLGKTIQAICIAAFYRKEWPLLVVVPSSVRFTWEQAFLRWLPSLSPDCINVVVTGKDRLTAGLINIVSFDLLSKLEKQLKTPFKVVIIDESHFLKNSRTARCRAAMPVLKVAKRVILLSGTPAMSRPAELYTQIIAVKPTFFPQFHAFGLRYCDAKRMPWGWDYSGSSNLGELKLLLEEAVMLRRLKSDVLSQLPAKQRKIVVIAPGRINARTRAALDAAAKEMTTKDKTKQQQKDALILFFNRTAEAKIPSVIEYILDLLESGREKFLVFAHHKVVLDAITQELERKHVQHIRIDGSTSSAEREDLCQQFQLSERHAVAVLSITAANMGLTFSSADLVVFAELFWNPGVLIQAEDRVHRIGQTSSVGIHYLVAKGTADDYLWPLIQEKIKVLAEAGLSETNFSEMTESTDYLYKDPKQQKIYDLFQKSFEKEGSDMELLEAAESFDPGSASGTSGSSSQNMGDTLDESSLTASPQKKRRFEFFDNWDSFTSPL

The values below come from IntAct's records for PubMed 24910198.

The variants in the first experiment derive from B1. The settings on record: with rfa2_human RPA2, P15927.
Target sequence in this assay (P15927 whole entry): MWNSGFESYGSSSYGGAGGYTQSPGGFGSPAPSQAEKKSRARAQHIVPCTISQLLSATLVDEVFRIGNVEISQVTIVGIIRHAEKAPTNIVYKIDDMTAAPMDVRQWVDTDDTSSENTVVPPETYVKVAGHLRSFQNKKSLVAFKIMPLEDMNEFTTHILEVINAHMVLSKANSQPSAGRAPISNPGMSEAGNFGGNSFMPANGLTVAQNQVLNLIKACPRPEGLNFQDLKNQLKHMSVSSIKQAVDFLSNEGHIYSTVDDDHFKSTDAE
Regarding MLEPQENGVIDLPDYEHVEDETFPPFPPPASPERQDGEGTEPDEESGNGAPVRVPPKRTVKRNIPKLDAQRLISERGLPALRHVFDKAKFKGKGHEAEDLKMLIRHMEHWAHRLFPKLQFEDFIDRVEYLGSKKEVQTCLKRIRLDLPILHEDFVSNNDEVAENNEHDVTSTELDPFLTNLSESEMFASELSRSATEEQQQRIERNKQLALERRQAKLLSNSQTLGNDMLMNTPRAHTVEEVNTDEDQKEESNGLNEDILDNPCNDAIANTLNEEETLLDQSFKNVQQQLDATSRNITEAR [L195A], the “effect of a mutation on the interaction” value is on record as “decreasing interaction”.

The variants in the next experiment derive from B2. The note with it: with rfa2_human RPA2, P15927.
Target sequence in this assay (P15927 whole entry): as the sequence (P15927 whole entry) above
Regarding L5A, the “effect of a mutation on the interaction” value was “decreasing interaction”.

Variants of B2 are the subject of a further experiment. The settings on record: with rfa2_human RPA2, P15927. This is another data set of the same source.
Target sequence in this assay (P15927 whole entry): as the sequence (P15927 whole entry) above
For the variant R17A;Q18A;K19A, the “effect of a mutation on the interaction” value is “decreasing interaction”.

In a further experiment the parent is B2. The settings on record: with rfa2_human RPA2, P15927. The source holds these as a separate data set.
Target sequence in this assay (P15927 whole entry): as the sequence (P15927 whole entry) above
Consider K27A, for which the “effect of a mutation on the interaction” value is “decreasing interaction”.

The variants in another experiment derive from B2. The note with it: with rfa2_human RPA2, P15927. The source holds these as a separate data set.
Target sequence in this assay (P15927 whole entry): as the sequence (P15927 whole entry) above
As for Q9A, the “effect of a mutation on the interaction” value was “decreasing interaction”.

Variants of B2 are the subject of the next experiment. The settings on record: with rfa2_human RPA2, P15927. The source holds these as a separate data set.
Target sequence in this assay (P15927 whole entry): as the sequence (P15927 whole entry) above
As to N16A;R17A, the “effect of a mutation on the interaction” value was “decreasing interaction”.

Another experiment covers variants of B2. The settings on record: with rfa2_human RPA2, P15927. The source holds these as a separate data set.
Take K12A;I13A: the “effect of a mutation on the interaction” value was “decreasing interaction”.

The next experiment covers variants of B2. The settings on record: with rfa2_human RPA2, P15927. This is another data set of the same source.
A20S;L21S: the “effect of a mutation on the interaction” value was “decreasing interaction”.
